In paper PMC8809517, “Cofactor-independent RNA editing by a synthetic S-type PPR protein”:
Substitutions are numbered along the chain they refer to.

Key:
Assay in all cases: high-throughput RNA pulldown from lysate on Ni-NTA beads; HRP: 50 mM Tris pH 8, 150 mM NaCl, 1 mM beta-mercaptoethanol, 50 ug/ml BSA, 3 ug/ml yeast RNA, 0.5% heparin; ITC and FP: Tris pH 8, 200 mM KCl, 5% glycerol; MST: 50 mM Tris pH 8, 200 mM NaCl, 1 mM DTT, BSA, heparin, 0.05% Tween 20
Details in all cases: tags: N-terminal His-eGFP
[1] = molecular target: T1, GFP-9S library array, motif 4 ND N98Q;D124I (synthetic construct, N98Q;D124I)
T1 chain: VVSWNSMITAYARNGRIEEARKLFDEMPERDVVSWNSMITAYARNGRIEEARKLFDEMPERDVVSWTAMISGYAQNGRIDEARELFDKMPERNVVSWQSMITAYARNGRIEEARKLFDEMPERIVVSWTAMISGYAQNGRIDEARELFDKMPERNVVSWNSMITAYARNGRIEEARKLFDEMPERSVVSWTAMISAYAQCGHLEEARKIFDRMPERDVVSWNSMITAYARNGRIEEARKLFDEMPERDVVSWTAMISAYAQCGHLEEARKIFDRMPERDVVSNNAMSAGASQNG

[2] = molecular target: T2, GFP-9S library array, motif 4 ND N98T;D124C (synthetic construct, N98T;D124C)
T2 chain: T1 chain with Q98T, I124C

[3] = molecular target: T3, GFP-9S library array, motif 4 ND N98F;D124P (synthetic construct, N98F;D124P)
T3 chain: T1 chain with Q98F, I124P

[4] = molecular target: T4, GFP-9S library array, motif 4 ND N98T;D124W (synthetic construct, N98T;D124W)
T4 chain: T1 chain with Q98T, I124W

[5] = molecular target: T5, GFP-9S library array, motif 4 ND N98R;D124G (synthetic construct, N98R;D124G)
T5 chain: T1 chain with Q98R, I124G

AUUAUACGUGA (ssRNA) [IR-rpoA-U] was tested, and the Kd ([1]; label: 5' IRDye 800CW) was 344 nM, the Kd ([2]; label: 5' IRDye 800CW) was 119 nM and the Kd ([3]; label: 5' IRDye 800CW) was 196 nM. It also gave a Kd ([4]; label: 5' IRDye 800CW) of 150 nM and a Kd ([5]; label: 5' IRDye 800CW) of 97.3 nM.

AUUAAACGUGA (ssRNA) [IR-rpoA-A] showed a Kd ([1]; label: 5' IRDye 800CW) of 315 nM, a Kd ([2]; label: 5' IRDye 800CW) of 88.6 nM and a Kd ([3]; label: 5' IRDye 800CW) of 393 nM. The Kd ([4]; label: 5' IRDye 800CW) was 125 nM and the Kd ([5]; label: 5' IRDye 800CW) was 191 nM.

For AUUAGACGUGA (ssRNA) [Cy5-rpoA-G], the Kd ([1]; label: 5' Cy5) was 102 nM, the Kd ([2]; label: 5' Cy5) was 8.1 nM and the Kd ([3]; label: 5' Cy5) was 181 nM. It also gave a Kd ([4]; label: 5' Cy5) of 71.6 nM and a Kd ([5]; label: 5' Cy5) of 102 nM.

AUUACACGUGA (ssRNA) [Cy5-rpoA] showed a Kd ([1]; label: 5' Cy5) of 142 nM, a Kd ([2]; label: 5' Cy5) of 330 nM and a Kd ([3]; label: 5' Cy5) of 140 nM. The Kd ([4]; label: 5' Cy5) was 81.5 nM and the Kd ([5]; label: 5' Cy5) was 74.7 nM.
